The data set addresses T1, yeast topo II (full-length) (Saccharomyces cerevisiae, UniProt P06786 1-1428).
T1 sequence: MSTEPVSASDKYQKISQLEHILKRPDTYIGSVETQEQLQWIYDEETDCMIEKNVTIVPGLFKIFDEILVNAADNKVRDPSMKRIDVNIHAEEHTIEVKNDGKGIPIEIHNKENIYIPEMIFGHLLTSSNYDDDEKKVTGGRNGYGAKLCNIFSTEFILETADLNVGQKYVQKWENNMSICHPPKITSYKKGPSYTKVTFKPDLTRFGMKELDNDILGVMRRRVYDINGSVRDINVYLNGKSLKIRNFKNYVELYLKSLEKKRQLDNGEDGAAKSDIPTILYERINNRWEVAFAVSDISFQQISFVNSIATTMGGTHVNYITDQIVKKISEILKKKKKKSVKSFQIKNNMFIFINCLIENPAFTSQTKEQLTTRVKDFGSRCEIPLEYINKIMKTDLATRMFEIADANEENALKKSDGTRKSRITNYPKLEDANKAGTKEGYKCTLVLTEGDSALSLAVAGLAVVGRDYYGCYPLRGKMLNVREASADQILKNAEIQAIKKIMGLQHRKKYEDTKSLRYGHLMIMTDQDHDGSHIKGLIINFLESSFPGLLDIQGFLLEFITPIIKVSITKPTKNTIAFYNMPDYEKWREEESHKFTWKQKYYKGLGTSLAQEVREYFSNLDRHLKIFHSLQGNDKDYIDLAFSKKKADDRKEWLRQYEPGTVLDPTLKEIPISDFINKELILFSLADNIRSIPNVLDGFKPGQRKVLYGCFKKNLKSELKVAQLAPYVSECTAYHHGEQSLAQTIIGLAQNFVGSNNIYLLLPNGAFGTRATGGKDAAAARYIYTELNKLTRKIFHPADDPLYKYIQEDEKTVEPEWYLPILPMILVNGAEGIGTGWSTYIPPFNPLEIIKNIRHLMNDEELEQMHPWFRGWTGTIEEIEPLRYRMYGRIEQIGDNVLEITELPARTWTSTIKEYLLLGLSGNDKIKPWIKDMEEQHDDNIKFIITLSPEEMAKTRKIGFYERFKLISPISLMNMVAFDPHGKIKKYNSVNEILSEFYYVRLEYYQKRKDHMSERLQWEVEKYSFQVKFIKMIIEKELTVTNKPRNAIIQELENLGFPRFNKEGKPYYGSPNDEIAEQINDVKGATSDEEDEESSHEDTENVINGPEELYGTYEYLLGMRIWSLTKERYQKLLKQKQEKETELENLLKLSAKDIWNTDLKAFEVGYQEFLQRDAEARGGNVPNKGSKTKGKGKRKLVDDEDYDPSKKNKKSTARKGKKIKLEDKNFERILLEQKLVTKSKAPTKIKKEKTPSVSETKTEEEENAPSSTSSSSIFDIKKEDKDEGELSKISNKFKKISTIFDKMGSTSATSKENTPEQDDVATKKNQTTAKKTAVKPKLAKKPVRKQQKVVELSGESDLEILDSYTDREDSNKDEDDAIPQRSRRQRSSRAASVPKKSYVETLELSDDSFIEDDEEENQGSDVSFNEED
Briefly: EMSA. For orientation: Mobility shift assays separate free from complexed probe on a gel.

B1: 51 bp dsDNA (dsDNA)
DNA 1: TATTTTCTTGTTCTTTTACATCAACACAATGTGACCATTACCTGGTTATCA
DNA 2: TGATAACCAGGTAATGGTCACATTGTGTTGATGTAAAAGAACAAGAAAATA
As usually defined, the Kd is the free concentration of one partner at which half of the binding sites on the other are occupied at equilibrium, for simple one-to-one binding. The molecule B1 displayed a Kd of about 50 nM.

These data come from doi:10.64898/2025.12.09.693212.
